From US20090203041A1, “BMP4 INHIBITORS” (priority 2006, published 2009)
Entries after “also recorded” stand apart in the source; their conditions may differ.

Experiments:
[1] = biological target: T1, BMP4 (Homo sapiens, UniProt P12644); assay: BMP4-induced C2C12 cell differentiation assay, peptide preincubated with BMP4; assay type: cell-based; conditions: peptide 5 μm preincubated with BMP4 100 ng/mL; C2C12 cells, ALP activity
T1 sequence (P12644 293-408): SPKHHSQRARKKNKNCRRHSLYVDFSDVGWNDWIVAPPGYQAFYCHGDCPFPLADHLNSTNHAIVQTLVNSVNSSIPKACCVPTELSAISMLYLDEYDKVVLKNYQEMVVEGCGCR
Protocol: (§1) To test whether exogenous expression of Gremlin can inhibit the activity of exogenously expressed BMP4, the activity of BMP4 secreted into the CM was measured by its effect on mouse myoblast C2C12 cell differentiation into osteoblasts. C2C12 cells were grown in 96-well plate until 90% confluence. Agents (100 ng/ml BMP4 or equivalent amounts of concentrated conditioned medium) were then added into the culture medium (Dulbecco's modified Eagle's medium with 5% fetal bovine serum) and the cells were cultured for 3 days. The cells were then lysed with 0.1% Triton X-100, and the alkaline phosphatase (ALP) activity in the cell lysate was quantified by adding substrate p-nitrophenyl phosphate and measuring absorbance at A405. Triplicate measurements were preformed for every sample. Conditioned media from cells transfected with control, Myc-BMP4, GRE-HA, or Myc-BMP4 and GRE-HA were assayed for BMP4 activity.
The function of the 30 amino acid Gremlin motif in mediating interaction between Gremlin and BMP4 and BMP4 inhibitor activity was assayed by the BMP4-induced C2C12 cell differentiation assay. A linear peptide corresponding to the mapped amino acid sequence (145-174) was synthesized by Genscript (Scotch Plains, N.J.).

[2] = biological target: T2, Myc-BMP4 (Mus musculus, UniProt P21275, INS296EQKLISEEDL); assay: Co-immunoprecipitation of Myc-BMP4 with HA-tagged Gremlin proteins co-expressed in COS-1 cells (anti-HA IP, anti-Myc Western blot); assay type: binding; conditions: co-transfected COS-1 cells
T2 construct: expressed in transfected cells; host or cells: COS-1 cells
T2 sequence (P21275 with tags, fused parts or gaps limits assumed): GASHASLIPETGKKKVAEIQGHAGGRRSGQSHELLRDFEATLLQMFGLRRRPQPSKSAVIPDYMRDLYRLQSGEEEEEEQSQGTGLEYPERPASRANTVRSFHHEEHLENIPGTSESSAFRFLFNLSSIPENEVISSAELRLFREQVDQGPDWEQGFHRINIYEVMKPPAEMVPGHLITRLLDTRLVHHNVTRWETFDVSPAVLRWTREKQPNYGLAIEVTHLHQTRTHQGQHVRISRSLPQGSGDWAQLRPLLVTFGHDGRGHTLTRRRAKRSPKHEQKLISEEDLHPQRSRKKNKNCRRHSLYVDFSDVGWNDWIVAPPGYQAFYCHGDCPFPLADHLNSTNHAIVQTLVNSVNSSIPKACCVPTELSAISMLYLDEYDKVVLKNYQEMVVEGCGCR
Protocol: (§2) To test whether exogenous BMP4 and Gremlin physically interact intracellularly, Myc-BMP4 and GRE-HA were co-transfected into COS-1 cells using Lipofectamine Plus (Invitrogen). Transfected cells were first cultured in medium containing 10% fetal calf serum for 20 hours and then cultured in serum-free conditioned medium (CM) for an additional 48 hours, and experiments were repeated at least three times.
To determine the specificity of BMP4-Gremlin binding and the molecular motif of Gremlin that is responsible for the intermolecular interaction, two truncated Gremlin molecules, GRE-DAN-HA and GRE-NF-HA, were generated with truncation of the NH2-terminal fragment (NF) or the carboxyl-terminal DAN domain (DAN), respectively, as diagramed in FIG. 6A (amino acid positions are in reference to SEQ ID NO:4). The two truncated Gremlin molecules were co-transfected with Myc-BMP4 into COS-1 cells, and immunoprecipitation was performed with anti-HA antibodies.
Partial cDNA of mouse Mucin-2, which encodes a Mucin-2 protein fragment of 114 amino acids on the carboxyl terminus (PQNQ . . . LGRK, GenBank™ accession number XP—620590) was generated by high fidelity RT-PCR (Pfu, Stratagene) and verified by DNA sequencing. An HA epitope was also added to the carboxyl terminus of Mucin-2 by inverted PCR. A variety of Gremlin-Mucin-2 chimeric cDNA constructs were created by inverted PCR in combination with restricted digestion and ligation of PCR products. The Gremlin-Mucin-2 chimeras generated are as diagrammed in FIG. 7B. These HA-epitope tagged Gremline-Mucin-2 chimera proteins were co-expressed with Myc-BMP in COS-1 cells by transient transfection. The BMP4 binding activities and inhibitory activities were evaluated by immunoprecipitation and BMP4-stimulated C2C12 cell differentiation assay as described in Examples 3 and 4. The results for the Gremlin-Mucin-2 chimeras are seen in FIGS. 8A and 8B.

[3] = biological target: Myc-tagged mouse BMP4 (Myc-BMP4) (mouse) (UniProt P21275); assay: cell-based or functional assay
[4] = biological target: T3, BMP4 (Mus musculus, UniProt P21275); assay: BMP4-stimulated C2C12 cell differentiation assay (alkaline phosphatase activity) with conditioned medium of transfected COS-1 cells; assay type: cell-based; conditions: C2C12 ALP activity
T3 construct: mature but no precursor BMP4 was detected in the concentrated CM; expressed in transfected cells; host or cells: COS-1 cells (conditioned medium applied to C2C12 cells)
T3 sequence (P21275 with tags, fused parts or gaps): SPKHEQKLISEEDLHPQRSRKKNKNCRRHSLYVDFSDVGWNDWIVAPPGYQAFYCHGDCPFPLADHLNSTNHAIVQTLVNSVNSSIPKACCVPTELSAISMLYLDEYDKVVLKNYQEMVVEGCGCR
Protocol: as §2, §1
CM collected separately from cells transfected with Myc-BMP4 or GRE-HA was mixed and preincubated for 1 hour before adding to C2C12 cells (1). COS-1 cells were transfected separately with Myc-BMP4 or GRE-HA, trypsinized and co-cultured during CM collection (2).

PKKFTTMMVTLNCPELQPPTKKKRVTRVKQ (listed as Homo sapiens) [linear peptide]
inhibition of BMP4 activities [1]: 56±10%

B1: GRE-NF-HA: truncated HA-tagged Gremlin with the carboxyl-terminal DAN domain deleted (protein)
chain: KKKGSQGAIPPPDKAQHNDSEQTQSPPQPGSRTRGRGQGRGTAMPGEEVLESSQEALHVTERKYLKRDW
modifications: left off: small tags and cut ends
notes: truncated HA-tagged Gremlin with the carboxyl-terminal DAN domain deleted
BMP4 binding (co-immunoprecipitation of Myc-BMP4) [2]: completely abolished

B2: HA-tagged mouse Gremlin (GRE-HA) (protein, not shown: small tags and cut ends)
chain: KKKGSQGAIPPPDKAQHNDSEQTQSPPQPGSRTRGRGQGRGTAMPGEEVLESSQEALHVTERKYLKRDWCKTQPLKQTIHEEGCNSRTIINRFCYGQCNSFYIPRHIRKEEGSFQSCSFCKPKKFTTMMVTLNCPELQPPTKKKRVTRVKQCRCISIDLD
inhibition of BMP4 activity (alkaline phosphatase activity, C2C12 cell differentiation assay); CM of Myc-BMP4 cells mixed with an equal amount of CM of GRE-HA cells [3]: 20% | inhibition of BMP4 activity (alkaline phosphatase activity, C2C12 cell differentiation assay); CM of cells co-transfected with Myc-BMP4 and GRE-HA [3]: 86% | inhibition of BMP4 activity (alkaline phosphatase activity, C2C12 cell differentiation assay); CM of co-cultured cells transfected separately with Myc-BMP4 or GRE-HA [3]: 55%

B3: GRE-HA: HA-epitope tagged mouse Gremlin, full length, expressed by transfection (protein)
chain: KKKGSQGAIPPPDKAQHNDSEQTQSPPQPGSRTRGRGQGRGTAMPGEEVLESSQEALHVTERKYLKRDWCKTQPLKQTIHEEGCNSRTIINRFCYGQCNSFYIPRHIRKEEGSFQSCSFCKPKKFTTMMVTLNCPELQPPTKKKRVTRVKQCRCISIDLD
modifications: left off: small tags and cut ends
BMP4 binding (co-immunoprecipitation of Myc-BMP4) [2]: Myc-BMP4 precursor was found in the cell lysate; also recorded: retained its BMP4 binding activity | BMP4 inhibitory effect ([4]; CM from COS-1 cells transfected separately with Myc-BMP4 or GRE-HA and co-cultured during CM collection): 55±5% | BMP4 activity inhibited ([4]; CM of Myc-BMP4 transfected cells plus equal amount of CM from GRE-HA transfected cells, mixed and preincubated 1 hour): 20±9% | BMP4 activity inhibited ([4]; cells co-transfected with Myc-BMP4 and GRE-HA, p<0.05): 86±4%

B4: GRE-DAN-HA: truncated HA-tagged Gremlin with the NH2-terminal fragment deleted (protein)
chain: CKTQPLKQTIHEEGCNSRTIINRFCYGQCNSFYIPRHIRKEEGSFQSCSFCKPKKFTTMMVTLNCPELQPPTKKKRVTRVKQCRCISIDLD
modifications: left off: small tags and cut ends
notes: truncated HA-tagged Gremlin with the NH2-terminal fragment deleted
BMP4 binding (co-immunoprecipitation of Myc-BMP4) [2]: retained its BMP4 binding activity
